Test results: paper PMC6356648

Biological target: laminin-332 produced and deposited by iNFs and iCAFs (human (endogenous in iNFs and iCAFs)) (UniProt Q16787)

contraction of a collagen-I gel by iCAFs, untreated (reference): 73% | contraction of a collagen-I gel by iCAFs, with BM2 (20 µg/mL): 44% | contraction of a collagen-I gel by iCAFs, with lebein-1 (10 µg/mL): 34%
Substance: integrin α3β1 (from UniProt P26006 33-1051; P05556 21-798) (receptor)
